According to US9670249B2, “Amphiphilic peptides and hydrogel matrices thereof for bone repair” (Ben-Gurion University of the Negev Research and Development …, priority 2006, dated 2017):
No end group written: not given here.

Experiments:
[1] = Hydrogel formation by dissolving peptides in NaOH solution; assay type: physicochemical; details: for pH at which hydrogel is stabilized / formed: 0.023M peptide in NaOH solutions; for Resultant pH / Self supporting gel formation assigned+: 4% weight peptide in 100 μl NaOH solution
Method: In general the matrix can be formed in the following way: dissolving the peptides at high pH above about 8) using either buffer (Tris) or NaOH. With the addition of the peptide the pH of the mixture drops and hydrogel may form. The peptide that is dissolved in alkaline solution can be titrated with HCl to a pH ˜7 to form yield a gel. The same can be done with HA or other mineral particles incorporated in the first step […]. Upon gelation the particles get trapped in the gel.
Four peptides were tested for their tendency to form hydrogels as function of pH and Ca^+2 ion concentrations. The peptides are 13 amino acids long having the sequence P-Y-(Z-Y)n-P, wherein n=5 and Y and Z are alternating hydrophilic (Y) and hydrophobic (Z) amino acids:
The experiment goal was to find appropriate conditions for hydrogel formation at physiological pH values (˜7.2) assuming that the type of amino acids in the dyads will determine the propensity of the system to form hydrogles thus the pH and the Ca^+2 ionic concentration of the system.
In an alkaline solution the acidic amino acid side chains tend to be negatively charged. Under these conditions charge-charge repulsive forces keep the peptides dissolved in solution. Upon lowering the pH the peptides which become uncharged undergo self-assembling through inter-strand hydrogen bonding, to form fibrous structure (FIG. 3) that stabilizes highly hydrated-gel, hydrogel. […] All the peptides lowered the pH of the solution to about 6-8 (Table 1).
In the next set of experiments the hypothesis that the more hydrophobic side chains would stabilize the beta-sheet fibril thus hydrogel formation, at higher pH values, was tested. Table 2 summarizes the effect of the hydrophobic side chain on the pH at which hydrogel is obtained. PLE-13 and PFE-13 were dissolved in different NaOH solutions to the same molar concentration (0.023M). […]

[2] = as above; assay type: physicochemical; details: 4% weight peptide in 100 μl NaOH solution, NaOH conc. 0.03

Which “pH at which hydrogel is stabilized / formed” value [1] does the source give for PELELELELELEP [PLE-13, PE(LE)5P] here?
The value was roughly 6.5.

For PDLDLDLDLDLDP [PLD-13, PD(LD)5P], which “pH at which hydrogel is stabilized / formed” value [1] is on record?
The value was “forms hydrogel at lower pH compared to that of PFD-13”.

For Pro-Asp-(Phe-Asp)6 (PDFDFDFDFDFDFD), which “Resultant pH” value ([1]; NaOH conc. 0.03) is on record?
The value was roughly 6.

What about the “Resultant pH” value ([1]; NaOH conc. 0.05) of the same substance?
The value was roughly 7.

And the “Self supporting gel formation assigned+” value ([1]; NaOH conc. 0.05)?
The value was “+after several hrs”.

With PDFDFDFDFDFDP [PFD-13, PD(FD)5P] as the substance, how does the “pH at which hydrogel is stabilized / formed” value [1] read?
The value was roughly 7.

For PEFEFEFEFEFEP [PFE-13, PE(FE)5P], which “pH at which hydrogel is stabilized / formed” value [1] is on record?
The value was greater than 7.

Which “Resultant pH” value ([1]; NaOH conc. 0.03) does the source give for (Phe-Asp)6 (FDFDFDFDFDFD) here?
Its value is roughly 6.

What about the “Resultant pH” value ([1]; NaOH conc. 0.05) of the same substance?
The value was roughly 7.

Which “Resultant pH” value ([1]; NaOH conc. 0.03) does the source give for “Pro-Asp-Phe-Asp (PDFD; printed: Pro-Asp-Phe-Asp)” here?
The value was roughly 3.

And the “Resultant pH” value ([1]; NaOH conc. 0.05)?
Its value is roughly 4.

And the “Self supporting gel formation assigned+” value ([1]; NaOH conc. 0.05)?
The value was “liquid”.

And the “Self supporting gel formation assigned+” value [2]?
Its value is “liquid”.

Which “Resultant pH” value ([1]; NaOH conc. 0.03) does the source give for “Ac-Pro-Asp-(Phe-Asp)5-Pro-NH2 (Ac-PDFDFDFDFDFDP-NH2)” here?
Its value is roughly 6.

What about the “Resultant pH” value ([1]; NaOH conc. 0.05) of the same substance?
The value was greater than 7.5.

What about the “Self supporting gel formation assigned+” value ([1]; NaOH conc. 0.05) of the same substance?
The value was “Viscous liquid”.
